Experimental data as given in patent publication US20240254222A1 (Bayer, published 2024).
Where a chain is given by its changes, count along the chain named.

T1: Human Semaphorin3A-Sema Domain, TPP-19068 (human, UniProt Q14563 21-569)
T1 construct: produced inhouse in HEK293-6E; also called human monovalent Sema3A domain
T1 sequence: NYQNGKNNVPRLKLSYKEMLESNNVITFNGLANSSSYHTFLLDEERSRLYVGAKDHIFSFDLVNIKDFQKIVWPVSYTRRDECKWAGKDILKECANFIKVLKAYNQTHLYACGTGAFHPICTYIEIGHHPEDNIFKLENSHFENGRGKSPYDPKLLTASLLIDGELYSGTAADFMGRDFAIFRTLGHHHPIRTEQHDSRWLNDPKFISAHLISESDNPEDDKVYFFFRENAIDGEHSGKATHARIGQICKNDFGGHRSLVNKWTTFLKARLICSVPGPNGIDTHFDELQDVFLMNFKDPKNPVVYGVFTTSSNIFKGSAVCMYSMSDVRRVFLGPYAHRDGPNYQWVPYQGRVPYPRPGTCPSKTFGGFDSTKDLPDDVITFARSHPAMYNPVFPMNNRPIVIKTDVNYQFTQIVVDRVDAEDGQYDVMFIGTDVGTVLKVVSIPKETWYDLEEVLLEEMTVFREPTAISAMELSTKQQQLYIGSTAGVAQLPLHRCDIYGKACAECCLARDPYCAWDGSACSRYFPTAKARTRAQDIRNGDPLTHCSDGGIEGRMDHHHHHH

T2: Mouse Semaphorin3A-Sema Domain, TPP-19069 (mouse, UniProt O08665 21-569)
T2 construct: produced inhouse
T2 sequence: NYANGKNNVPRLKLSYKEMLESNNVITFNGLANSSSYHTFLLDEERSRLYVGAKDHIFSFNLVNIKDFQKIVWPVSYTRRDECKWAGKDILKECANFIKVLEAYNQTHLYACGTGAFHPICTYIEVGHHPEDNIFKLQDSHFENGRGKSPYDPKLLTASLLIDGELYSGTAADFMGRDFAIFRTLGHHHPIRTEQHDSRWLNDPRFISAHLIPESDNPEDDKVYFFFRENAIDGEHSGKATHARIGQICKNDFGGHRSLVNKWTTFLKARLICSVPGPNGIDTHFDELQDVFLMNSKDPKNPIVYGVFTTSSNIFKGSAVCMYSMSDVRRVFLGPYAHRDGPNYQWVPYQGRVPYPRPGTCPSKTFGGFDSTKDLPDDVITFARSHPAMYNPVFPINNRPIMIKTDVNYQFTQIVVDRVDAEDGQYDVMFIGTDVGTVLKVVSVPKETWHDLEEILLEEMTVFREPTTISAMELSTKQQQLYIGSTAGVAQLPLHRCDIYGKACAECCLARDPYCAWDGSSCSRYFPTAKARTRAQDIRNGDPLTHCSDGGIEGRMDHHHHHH

B1: TPP-23337 (antibody, human IgG4 S228P, lambda, V domains shown)
VH: EVQLLESGGGLVQPGGSLRLSCAASGFTFSSYAMSWVRQAPGKGLEWVSAIGYGGDTYYADSVKGRFTISRDNSKNTLYLQMNSLRAEDTAVYYCARRDDYTSRDAFDYWGQGTLVTVSS
VL: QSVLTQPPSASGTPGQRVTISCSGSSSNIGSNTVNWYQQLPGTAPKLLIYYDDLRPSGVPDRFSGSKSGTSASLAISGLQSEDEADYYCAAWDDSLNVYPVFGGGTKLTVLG
B2: TPP-23298 (antibody, human IgG4 S228P, lambda, V domains shown)
VH: B1 VH with S30Y, Y53T
VL: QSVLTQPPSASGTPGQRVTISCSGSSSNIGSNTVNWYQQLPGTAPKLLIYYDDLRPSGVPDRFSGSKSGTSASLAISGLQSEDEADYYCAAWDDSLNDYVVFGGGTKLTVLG
B3: TPP-23334 (antibody, human IgG4 S228P, lambda, V domains shown)
VH: B1 VH
VL: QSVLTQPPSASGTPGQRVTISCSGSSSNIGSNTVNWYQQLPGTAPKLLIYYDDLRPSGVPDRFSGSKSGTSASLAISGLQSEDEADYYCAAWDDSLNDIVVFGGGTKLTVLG
B4: TPP-23338 (antibody, human IgG4 S228P, lambda, V domains shown)
VH: B1 VH
VL: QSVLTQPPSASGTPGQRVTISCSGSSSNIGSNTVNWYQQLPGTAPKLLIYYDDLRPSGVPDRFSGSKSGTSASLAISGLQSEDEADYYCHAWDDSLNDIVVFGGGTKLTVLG
B5: TPP-23340 (antibody, human IgG4 S228P, lambda, V domains shown)
VH: B1 VH
VL: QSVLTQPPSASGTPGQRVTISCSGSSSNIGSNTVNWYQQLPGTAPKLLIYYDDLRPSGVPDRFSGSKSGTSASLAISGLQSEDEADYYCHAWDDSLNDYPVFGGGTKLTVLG
B6: TPP-23341 (antibody, human IgG4 S228P, lambda, V domains shown)
VH: B1 VH
VL: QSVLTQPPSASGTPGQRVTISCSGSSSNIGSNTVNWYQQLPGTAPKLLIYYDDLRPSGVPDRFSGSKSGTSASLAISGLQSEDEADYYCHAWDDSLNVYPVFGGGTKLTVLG
B7: TPP-23347 (antibody, human IgG4 S228P, lambda, V domains shown)
VH: B1 VH with S30Y, S35L, Y53T
VL: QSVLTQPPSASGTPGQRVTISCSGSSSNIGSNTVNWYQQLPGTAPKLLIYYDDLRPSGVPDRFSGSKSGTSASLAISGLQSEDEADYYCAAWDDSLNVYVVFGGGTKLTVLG
B8: TPP-23373 (antibody, human IgG4 S228P, lambda, V domains shown)
VH: B1 VH with S30Y
VL: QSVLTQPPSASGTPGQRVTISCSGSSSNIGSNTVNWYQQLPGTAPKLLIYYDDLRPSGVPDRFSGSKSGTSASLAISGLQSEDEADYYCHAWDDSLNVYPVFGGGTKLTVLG
B9: TPP-23374 (antibody, human IgG4 S228P, lambda, V domains shown)
VH: B1 VH with S30Y
VL: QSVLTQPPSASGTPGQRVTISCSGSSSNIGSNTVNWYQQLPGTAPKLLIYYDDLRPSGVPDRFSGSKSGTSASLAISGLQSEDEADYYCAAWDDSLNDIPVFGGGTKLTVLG
B10: TPP-23375 (antibody, human IgG4 S228P, lambda, V domains shown)
VH: B1 VH with S30Y
VL: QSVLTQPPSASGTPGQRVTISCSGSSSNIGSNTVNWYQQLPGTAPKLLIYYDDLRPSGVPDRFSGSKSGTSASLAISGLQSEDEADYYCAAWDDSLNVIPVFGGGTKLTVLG

The binders below were run against Human Semaphorin3A-Fc (R&D Systems), TPP-13211 (human) (assay: cell-based or functional assay).
In the case of B1, the “EC50 [nM], MCM assay” value is reported as 0.33 nM.
With B2 the “EC50 [nM], MCM assay” value was 0.4 nM.
In the case of B3, the “EC50 [nM], MCM assay” value is reported as 0.67 nM.
B4 was tested, and the “EC50 [nM], MCM assay” value was 0.6 nM.
In the case of B5, the “EC50 [nM], MCM assay” value is reported as 0.87 nM.
With B6 the “EC50 [nM], MCM assay” value was 0.9 nM.
B7 was tested, and the “EC50 [nM], MCM assay” value was 0.67 nM.
In the case of B8, the “EC50 [nM], MCM assay” value is reported as 0.63 nM.
B9 was tested, and the “EC50 [nM], MCM assay” value was 0.3 nM.
For B10, the “EC50 [nM], MCM assay” value was 1.03 nM.

These binders were tested against T1, Human Semaphorin3A-Sema Domain, … (assay: SPR, captured antibody, Sema3A domain analyte).
Method: (§1) To assess the binding kinetics and affinity of anti-Sema3A antibodies as well as their species cross-reactivity profile, binding assays were conducted using surface plasmon resonance (SPR). Binding assays were performed on a Biacore T200 instrument or on a Biacore 8K+ instrument (Cytiva) at 25° C. using assay buffer HBS P+, 300 mM NaCl, 0.75 mM CaCl₂, 2.5 mM MgCl₂, 1 mg/ml BSA, 0.05% NaN₃. Antibodies were captured either via anti-human Fc IgGs (“Human antibody capture kit”, Order No. BR100839, Cytiva) or in case of Fc-tagged analytes by anti-human Fab IgGs (“Human Fab capture kit”, Order No. 28958325, Cytiva) covalently amine coupled to a Series S CM5 sensor chip (Cytiva). The amine coupling was carried out according to the manufacturer's instructions using 1-ethyl-3-(3-dimethylaminopropyl) carbodiimide hydrochloride (EDC), N-hydroxysuccinimide (NHS) and ethanolamine HCl, pH 8.5 (“Amine Coupling Kit” BR-1000-50, Cytiva.). For phage display hits Fc-tagged human and mouse Sema3A was used as analytes in a concentration range from 1.56-200 nM. Human, mouse, cynomolgus, rat, dog and pig monovalent Sema3A domain were used as analytes in a concentration series from […] in multi cycle kinetics mode or in 100 nM for binding analysis only. The sensor surface was regenerated with glycine pH 2.0 after each antigen injection. Obtained sensorgrams were double referenced (subtraction of reference flow cell signal and buffer injection) and were fitted to a 1:1 Langmuir binding model to derive kinetic data using the Biacore T200 Evaluation software.
In the case of B1, the Kd is reported as 0.05 nM.
In the case of B2, the Kd is reported as 0.087 nM.
Binder B3 has a Kd of 0.021 nM.
For B4, the Kd was 0.054 nM.
With B5 the Kd was 0.022 nM.
With B6 the Kd was 0.091 nM.
B7 showed a Kd of 0.06 nM.
B8 gave a Kd of 0.11 nM.
In the case of B9, the Kd is reported as 0.0081 nM.
In the case of B10, the Kd is reported as 0.053 nM.

Each binder was assayed against T2, Mouse Semaphorin3A-Sema Domain, … (assay: SPR, captured antibody, Sema3A domain analyte).
Method: as §1
B1 gave a Kd of 0.05 nM.
With B2 the Kd was 0.074 nM.
Work on B3 yielded a Kd of 0.062 nM.
For B4, the Kd was 0.045 nM.
Binder B5 has a Kd of 0.059 nM.
B6 showed a Kd of 0.092 nM.
For B7, the Kd was 0.055 nM.
B8 was tested, and the Kd was 0.083 nM.
Binder B9 has a Kd of 0.016 nM.
With B10 the Kd was 0.042 nM.

Each binder was assayed against T3, Human Semaphorin3A-Fc (R&D Systems), TPP-13211 (human) (assay: ELISA, coated Sema3A-Fc, antibody 0.00015-10 ug/ml).
T3 construct: R&D Systems 1250-S3; also called recombinant human Sema3A-Fc chimera
T3 sequence (chain, as listed by the source limits assumed): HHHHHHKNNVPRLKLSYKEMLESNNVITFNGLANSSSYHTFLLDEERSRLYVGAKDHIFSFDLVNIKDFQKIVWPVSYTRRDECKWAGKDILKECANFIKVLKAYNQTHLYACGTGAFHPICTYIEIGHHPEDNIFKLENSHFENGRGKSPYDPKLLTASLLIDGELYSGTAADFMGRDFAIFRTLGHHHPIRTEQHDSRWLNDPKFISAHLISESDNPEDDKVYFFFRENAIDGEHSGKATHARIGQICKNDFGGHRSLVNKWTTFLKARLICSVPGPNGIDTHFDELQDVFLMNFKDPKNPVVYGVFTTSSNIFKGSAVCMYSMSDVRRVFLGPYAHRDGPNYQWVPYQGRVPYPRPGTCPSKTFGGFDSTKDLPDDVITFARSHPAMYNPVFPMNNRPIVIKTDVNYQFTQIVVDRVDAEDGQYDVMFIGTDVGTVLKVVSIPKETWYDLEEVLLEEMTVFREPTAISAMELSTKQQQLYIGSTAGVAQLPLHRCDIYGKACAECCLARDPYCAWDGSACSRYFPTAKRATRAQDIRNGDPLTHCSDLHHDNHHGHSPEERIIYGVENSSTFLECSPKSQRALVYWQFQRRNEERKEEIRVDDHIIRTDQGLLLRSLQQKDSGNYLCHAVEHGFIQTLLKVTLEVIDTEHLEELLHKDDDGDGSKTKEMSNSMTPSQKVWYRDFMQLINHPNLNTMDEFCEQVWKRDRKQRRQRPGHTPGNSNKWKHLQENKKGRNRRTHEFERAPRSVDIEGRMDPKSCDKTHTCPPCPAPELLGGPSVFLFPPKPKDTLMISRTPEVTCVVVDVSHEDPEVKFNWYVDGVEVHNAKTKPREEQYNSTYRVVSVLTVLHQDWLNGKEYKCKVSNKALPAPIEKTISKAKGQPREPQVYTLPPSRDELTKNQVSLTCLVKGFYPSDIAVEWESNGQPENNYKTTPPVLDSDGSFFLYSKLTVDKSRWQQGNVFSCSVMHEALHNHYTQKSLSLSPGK
Method: For the assessment of binding selectivity to Sema3A vs Sema3G, 1 nM recombinant human Sema3A-Fc chimera (R&D Systems) or recombinant human GST—Sema3G (Abnova) were coated on Maxisorb plates, incubated with antibodies in a dose-response curve from 0.00015-10 μg/ml, and the binding of antibodies quantified using HRP coupled anti-human antiserum and chemiluminescent substrate.
Work on B1 yielded an EC50 of 15.5 nM.
For B2, the EC50 was 1.6 nM.
In the case of B3, the EC50 is reported as 9.2 nM.
B4 showed an EC50 of 9.6 nM.
B5 showed an EC50 of 12.3 nM.
With B6 the EC50 was 21.3 nM.
In the case of B7, the EC50 is reported as 8.4 nM.
Work on B8 yielded an EC50 of 17.6 nM.
In the case of B9, the EC50 is reported as 6.1 nM.
Binder B10 has an EC50 of 7.7 nM.

The binders below were run against T3, Human Semaphorin3A-Fc (R&D Systems), … (assay: competition ELISA on coated TPP-13211, competitor biotinylated TPP-15370).
Method: For screening in a competition ELISA setup, human Sema3a (TPP-13211) was coated onto 384-well plates (Greiner bio-one, 781077) with a concentration of 0.5 μg/ml in coating buffer (Carbonate-Basis pH 9.6, Candor 121125) over night at 10° C. After washing the plates 3 times with 50 μl PBS 0.05% Tween the plates were blocked with 50 μl Smart Block® (Candor 113500) for 1 h at 20° C. and washed again 3 times as described.
Subsequently, 20 μl of pre-mixed antibody solution was added to the plates and incubate for 18 h at 10° C. […] The total concentration of the added antibody solution was 0.25 μg/ml. During the incubation time the antibodies bound to the plates in a competitive manner as they compete for the same epitope on the human Sema3A protein.
After subsequent washing with 50 μl PBS 0.05% Tween for 3 times, 20 μl of a Streptavidin-HRP solution (R&D Systems, DY998, 1:200 in PBS 0.05% Tween 10% Smart Block) were added and incubated for 1 h and 20° C. followed by subsequent washing 3 times with 50 μl PBS 0.05% Tween and addition of 20 μl Amplex Red solution (Invitrogen A12222, 1:1000 in NaP-buffer 50 mM pH7.6 with 1:10000 of 30% H2O2). After a final incubation for 20 min at 20° C. the signal was determined using an emission wavelength of 595 nm and excitation of 530 nm.
B1 was tested, and the “VAL norm to TPP-9809 (1 to 1 ratio)” value was 0.27 and the “VAL norm to TPP-9809 (1 to 5 ratio)” value was 0.14.
B2 was tested, and the “VAL norm to TPP-9809 (1 to 1 ratio)” value was 0.18 and the “VAL norm to TPP-9809 (1 to 5 ratio)” value was 0.09.
With B3 the “VAL norm to TPP-9809 (1 to 1 ratio)” value was 0.28 and the “VAL norm to TPP-9809 (1 to 5 ratio)” value was 0.11.
In the case of B4, the “VAL norm to TPP-9809 (1 to 1 ratio)” value is reported as 0.33.
For B5, the “VAL norm to TPP-9809 (1 to 1 ratio)” value was 0.4.
In the case of B6, the “VAL norm to TPP-9809 (1 to 1 ratio)” value is reported as 0.38 and the “VAL norm to TPP-9809 (1 to 5 ratio)” value is reported as 0.18.
B7 was tested, and the “VAL norm to TPP-9809 (1 to 1 ratio)” value was 0.3 and the “VAL norm to TPP-9809 (1 to 5 ratio)” value was 0.16.
B8 was tested, and the “VAL norm to TPP-9809 (1 to 1 ratio)” value was 0.35 and the “VAL norm to TPP-9809 (1 to 5 ratio)” value was 0.2.
B9 was tested, and the “VAL norm to TPP-9809 (1 to 1 ratio)” value was 0.19 and the “VAL norm to TPP-9809 (1 to 5 ratio)” value was 0.08.
For B10, the “VAL norm to TPP-9809 (1 to 1 ratio)” value was 0.3 and the “VAL norm to TPP-9809 (1 to 5 ratio)” value was 0.16.
